Changes are numbered by the printed parent chain. One block for each binder: values may come before it.
What was measured:
[1] = target: T1, EGFR expressed on A431 cells (human, UniProt P00533 25-1210); assay: cell-based or functional assay
[2] = target: T1, EGFR expressed on A431 cells; assay: EGFR cell receptor binding assay: inhibition of biotinylated EGF binding to A431 cells; IgG-like format
VEGF-165 = target: T2, VEGF-165 (human, UniProt P15692-4 27-191); assay: VEGF receptor binding assay (RBA), IgG-like format; receptor (VEGFR1 or VEGFR2) not given
T2 construct: The assay text gives no species; also called vascular endothelial growth factor
T2 sequence (P15692 other isoform, or with tags, fused parts or gaps limits assumed): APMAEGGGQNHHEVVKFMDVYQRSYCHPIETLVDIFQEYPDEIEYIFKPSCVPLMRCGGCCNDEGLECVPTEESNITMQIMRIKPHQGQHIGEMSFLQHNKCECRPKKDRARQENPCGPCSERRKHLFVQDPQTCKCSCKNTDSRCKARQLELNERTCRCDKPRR

[3] = target: T1, EGFR expressed on A431 cells; assay: EGFR binding assay: inhibition of biotinylated EGF binding to A431 cells; lowest value obtained
Procedure: All reagents were prepared in PBS/1% BSA. The plate was incubated for 30 minutes at room temperature.

B1: DOM16-39 (other)
VL: DIQMTQSPSSLSASVGDRVTITCRASQWIGILLDWYQQKPGEAPKLLIYYASFLQSGVPSRFSGSGSGTDFTLTISSLQPEDFATYYCQQANPAPLTFGQGTKVEIKR
Kinase Assay IC50 (nM), average [1]: 56.1 nM

B2: IgG-like format No. 28 (heavy chain V region DOM15-26-501 VH; light chain V region DOM16-39-500 VK) (bispecific antibody, V domains shown)
VH: EVQLLESGGGLVQPGGSLRLSCAASGFTFKAYPIMWVRQAPGKGLEWVSEISPSGSYTYYADSVKGRFTISRDNSKNTLYLQMNSLRAEDTAVYYCAKDPRKFDYWGQGTLVTVSS
VL: B1 VL with L33V, E42K, S67F, Q79H
notes: IgG-like format; also called IgG 28; not shown: human IgG1 heavy chain constant region; human kappa light chain constant region (CK)
EC50 [2]: 43 nM | IC50 (VEGF-165): 0.8 nM

B3: DOM16-39-87 (other)
VL: B1 VL with L33V, T97R
IC50 [3]: 4.47 to 10.4 nM | Kinase Assay IC50 (nM), average [1]: 54.9 nM

B4: DOM16-39-100 (other)
VL: B1 VL with L33V, S67F, Q79H
IC50 [3]: 1.01 to 2.76 nM | Kinase Assay IC50 (nM), average [1]: 12.7 nM | Kinase Assay IC50 (nM), highest value [1]: 17.6 nM | Kinase Assay IC50 (nM), lowest value [1]: 9.14 nM

The remaining lines, values ahead:

IC50 [3]: 1.47 to 4.21 nM | Kinase Assay IC50 (nM), average [1]: 20.5 nM
B5: DOM16-39-107 (other)
VL: B1 VL with L33V

IC50 [3]: 0.746 to 1.47 nM | Kinase Assay IC50 (nM), average [1]: 8.69 nM
B6: DOM16-39-109 (other)
VL: B1 VL with S9T, I31N, S65G, S67F

EC50 [2]: 17 nM | IC50 (VEGF-165): 0.2 nM
B7: IgG-like format No. 30 (heavy chain V region DOM15-26-501 VH; light chain V region DOM16-39-502 VK) (bispecific antibody, V domains shown)
VH: B2 VH
VL: B1 VL with S9T, I31N, E42K, S65G, S67F
notes: IgG-like format; also called IgG 30; not shown: human IgG1 heavy chain constant region; human kappa light chain constant region (CK)

IC50 [3]: 1.08 to 6.89 nM | Kinase Assay IC50 (nM), average [1]: 42.4 nM
B8: DOM16-39-115 (other)
VL: B1 VL with S67Y

From patent publication US20100056439A1 (DOMANTIS, published 2010)
